The values below come from article PMC9202080, “Evolution of homo‐oligomerization of methionine S‐adenosyltransferases is replete with structure–function constrains” (Protein Science : A Publication of the Protein Society, 2022).

Series [1] has as its target T1, NgMAT (Neisseria gonorrhoeae, UniProt Q5FAC0).
T1 construct: gene metK; full length, C-terminal His6 tag, codon-optimised synthetic gene, E. coli BL21(DE3), dimer without substrates, functional homotetramer with substrates
T1 sequence (Q5FAC0 1-389): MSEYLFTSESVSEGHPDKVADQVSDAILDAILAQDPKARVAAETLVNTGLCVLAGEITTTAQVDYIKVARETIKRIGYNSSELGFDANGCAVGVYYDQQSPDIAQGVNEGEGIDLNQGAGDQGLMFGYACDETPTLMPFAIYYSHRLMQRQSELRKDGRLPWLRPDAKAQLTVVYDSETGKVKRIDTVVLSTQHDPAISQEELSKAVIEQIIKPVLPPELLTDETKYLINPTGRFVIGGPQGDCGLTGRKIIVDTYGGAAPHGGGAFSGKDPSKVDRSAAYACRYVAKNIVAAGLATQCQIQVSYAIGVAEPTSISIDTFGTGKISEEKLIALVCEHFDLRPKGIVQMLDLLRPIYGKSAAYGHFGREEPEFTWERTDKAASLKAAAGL
Put plainly: size exclusion chromatography, ligand-induced tetramerization. The series is classed as binding. As to conditions: 10 uM NgMAT; AMP-PNP alone or with methionine. A general note: SEC sorts molecules by how far they enter the pores of the column.

Series [2] has as its target T1, NgMAT. In words: SAM formation, size exclusion chromatography. The series is classed as biochemical.
Series [3] concerns the molecule itself. Put plainly: SEC; 10 μM NgMAT pre-incubated with saturated methionine and ATP together.
Series [4] concerns the molecule itself. In words: SEC; 10 μM NgMAT pre-incubated with saturated methionine alone or ATP alone.
Series [5] concerns the molecule itself. Put plainly: crystal structure; LpMAT + 5 mM AMPPNP + 5 mM methionine, 2.82 Å, space group P1, eight copies in the asymmetric unit.
Series [6] concerns the molecule itself. Put plainly: crystal structure; EcMATmut + 5 mM AMPPNP + 5 mM methionine, 1.6 Å, space group P42212, one copy in the asymmetric unit.
Series [7] deals with the molecule itself. In words: SEC; diluted from ~300 μM stocks to 10 μM, incubated 100 hr at 25°C in 50% glycerol, sampled by SEC until equilibrium (~75 hr); Kd calculated from the tetrameric fraction; tetramer to dimers.
Series [8] concerns the molecule itself. In words: SEC; Superdex 200 Increase, 25 mM TrisHCl, 150 mM KCl, 1 mM DTT; protein diluted from a 300 μM stock, pre-incubated diluted for an hour, then injected; EcMAT 1.56–100 μM, NgMAT 10–100 μM; no substrates.

On to `Nc1ncnc2c1ncn2[C@@H]1O[C@H](COP(=O)(O)OP(=O)(O)NP(=O)(O)O)[C@@H](O)[C@H]1O` [AMP-PNP], for which the “size exclusion chromatography, ligand-induced tetramerization” value on NgMAT [1] is recorded as “We found that AMP‐PNP increased the tetrameric species substantially”.

Turning to `Nc1ncnc2c1ncn2[C@@H]1O[C@H](COP(=O)(O)OP(=O)(O)OP(=O)(O)O)[C@@H](O)[C@H]1O` [ATP], at NgMAT [2] (10 uM NgMAT with methionine), the “SAM formation, size exclusion chromatography” value was “in the presence of both substrates we saw a marked shift of NgMAT toward tetramerization”.

In the case of `CSCC[C@H](N)C(=O)O` [methionine], on NgMAT [2] (10 uM NgMAT with ATP), the “SAM formation, size exclusion chromatography” value was “in the presence of both substrates we saw a marked shift of NgMAT toward tetramerization”.

B1: Neisseria gonorrhoeae methionine S-adenosyltransferase (enzyme, UniProt B4RQ36 1-389, looked up)
chain: MSEYLFTSESVSEGHPDKVADQVSDAILDAILAQDPKARVAAETLVNTGLCVLAGEITTTAQVDYIKVARETIKRIGYNSSELGFDANGCAVGVYYDQQSPDIAQGVNEGEGIDLNQGAGDQGLMFGYACDETPTLMPFAIYYSHRLMQRQSELRKDGRLPWLRPDAKAQLTVVYDSETGKVKRIDTVVLSTQHDPAISHEELSKAVIEQIIKPVLPPELLTDETKYLINPTGRFVIGGPQGDCGLTGRKIIVDTYGGAAPHGGGAFSGKDPSKVDRSAAYACRYVAKNIVAAGLATQCQIQVSYAIGVAEPTSISIDTFGTGKISEEKLIALVCEHFDLRPKGIVQMLDLLRPIYGKSAAYGHFGREEPEFTWERTDKAASLKAAAGL
notes: methionine S-adenosyltransferase of Neisseria gonorrhoeae; also called NgMAT; N. gonorrhoeae MAT; source: E. coli BL21 (DE3), pET24a, purified (Ni-NTA)
What is called stoichiometry N is the number of molecules, sites or subunits per partner or assembly. With B1, the “stoichiometry N” value in series [3] amounted to 4; in series [4] it was 2.

B2: Lactiplantibacillus plantarum methionine S-adenosyltransferase (enzyme, UniProt Q88XB8 1-395, looked up)
chain: MSERHLFTSESVSEGHPDKIADQISDAILDAMLAQDPQARVAVETSVTTGLVLVFGEVSTKAYVDIQKVVRDTIKSIGYVDGQYGFDGDNCAVLVSLDEQSPDIAQGVDDSLETRSGDADPLDQIGAGDQGMMFGYAINETPELMPLPIALSHRLMRKIAALRKDGTIKWLRPDAKAQVTVEYDEDNQPKRIDTVVLSTQHDPDVDLDTIRQTVIDQVIKAVLPADLLDDQTKYLVNPTGRFVIGGPQGDAGLTGRKVIVDTYGGFAHHGGGAFSGKDATKVDRSASYAARYIAKNVVAAGLADQVEVQLAYAIGVAEPVSIAVDTAGTGKVSDEALINAIRENFDLRPAGIIKMLDLQRPIYRQTAAYGHFGRTDIDLPWEHTDKVDALKAVFK
notes: also called LpMAT; MAT from Lactiplantibacillus planatrum; source: E. coli BL21 (DE3), pET24a, purified (Ni-NTA)
In the case of B2, the “stoichiometry N” value in series [5] was determined as 2.

B3: Escherichia coli methionine S-adenosyltransferase E67K K98Q (enzyme)
chain: MAKHLFTSESVSEGHPDKIADQISDAVLDAILEQDPKARVACETYVKTGMVLVGGEITTSAWVDIEKITRNTVREIGYVHSDMGFDANSCAVLSAIGQQSPDINQGVDRADPLEQGAGDQGLMFGYATNETDVLMPAPITYAHRLVQRQAEVRKNGTLPWLRPDAKSQVTFQYDDGKIVGIDAVVLSTQHSEEIDQKSLQEAVMEEIIKPILPAEWLTSATKFFINPTGRFVIGGPMGDCGLTGRKIIVDTYGGMARHGGGAFSGKDPSKVDRSAAYAARYVAKNIVAAGLADRCEIQVSYAIGVAEPTSIMVETFGTEKVPSEQLTLLVREFFDLRPYGLIQMLDLLHPIYKETAAYGHFGREHFPWEKTDKAQLLRDAAGLK
notes: methionine S-adenosyltransferase (MAT) of Escherichia coli with the salt-bridge residues of the small interface swapped to those of NgMAT; made from the EcMAT construct by site directed mutagenesis; also called EcMATmut; E. coli E67K K98Q; source: E. coli BL21 (DE3), pET24a, purified (Ni-NTA)
The Kd is the constant that tells how readily two partners part at equilibrium. With B3, the “stoichiometry N” value in series [6] amounted to 4. The Kd in series [7] is 90.3 µM.

B4: Escherichia coli methionine S-adenosyltransferase (enzyme)
chain: AKHLFTSESVSEGHPDKIADQISDAVLDAILEQDPKARVACETYVKTGMVLVGGEITTSAWVDIEEITRNTVREIGYVHSDMGFDANSCAVLSAIGKQSPDINQGVDRADPLEQGAGDQGLMFGYATNETDVLMPAPITYAHRLVQRQAEVRKNGTLPWLRPDAKSQVTFQYDDGKIVGIDAVVLSTQHSEEIDQKSLQEAVMEEIIKPILPAEWLTSATKFFINPTGRFVIGGPMGDCGLTGRKIIVDTYGGMARHGGGAFSGKDPSKVDRSAAYAARYVAKNIVAAGLADRCEIQVSYAIGVAEPTSIMVETFGTEKVPSEQLTLLVREFFDLRPYGLIQMLDLLHPIYKETAAYGHFGREHFPWEKTDKAQLLRDAAGLK
notes: methionine S-adenosyltransferase (MAT) of Escherichia coli; Homotetramer (dimer of dimers) in solution; the self-association rows are of this chain with itself; also called EcMAT; E. coli MAT; source: E. coli BL21 (DE3), pET24a, purified (Ni-NTA)
As for B4, the dissociation constant (Kd) in series [7] was 8.2 µM. The “stoichiometry N” value in series [8] is 4.
